Assay results: patent publication US20140219992A1

How the values were obtained:
[1] = target: serum-derived protein (Zucker rat); assay: solid phase capture ELISA of Zucker rat skin perfusate, 30 minutes after start of perfusion, 1 mM Ca^2+
[2] = target: serum-derived protein (Zucker rat); assay: solid phase capture ELISA of Zucker rat skin perfusate, 2 minutes after perfusion, 1 mM Ca^2+
[3] = target: serum-derived protein (Zucker rat); assay: solid phase capture ELISA of Zucker rat skin perfusate, 90 minutes after perfusion, 1 mM Ca^2+
[4] = target: serum-derived protein (Zucker rat); assay: solid phase capture ELISA of Zucker rat skin perfusate, 30 minutes after perfusion, 1 mM Ca^2+
[5] = target: serum-derived protein (Zucker rat); assay: solid phase capture ELISA of Zucker rat skin perfusate, 2 minutes after perfusion, 10 mM Ca^2+
[6] = target: serum-derived protein (Zucker rat); assay: solid phase capture ELISA of Zucker rat skin perfusate, 30 minutes after perfusion, 10 mM Ca^2+
[7] = target: serum-derived protein (Zucker rat); assay: solid phase capture ELISA of Zucker rat skin perfusate, 90 minutes after perfusion, 10 mM Ca^2+
[8] = target: serum-derived protein (Zucker rat); assay: solid phase capture ELISA of Zucker rat skin perfusate, 60 minutes after perfusion, 10 mM Ca^2+

Sequence of wild-type human matrix metalloprotease 1 (hMMP-1), purified and trypsin-activated (P03956 100-469): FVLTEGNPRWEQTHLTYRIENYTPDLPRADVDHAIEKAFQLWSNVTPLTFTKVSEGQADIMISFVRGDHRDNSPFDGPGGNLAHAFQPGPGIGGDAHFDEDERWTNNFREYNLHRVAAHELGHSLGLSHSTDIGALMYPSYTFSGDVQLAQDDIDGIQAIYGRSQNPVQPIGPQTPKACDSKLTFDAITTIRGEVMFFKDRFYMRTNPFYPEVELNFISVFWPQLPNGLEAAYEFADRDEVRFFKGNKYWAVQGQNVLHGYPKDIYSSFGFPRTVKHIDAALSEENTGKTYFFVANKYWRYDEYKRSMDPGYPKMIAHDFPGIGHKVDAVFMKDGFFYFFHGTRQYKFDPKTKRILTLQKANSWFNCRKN

Row | uncomplexed protein as a fraction of the starting concentration (fraction of the starting concentration) [1] | percent of uncomplexed protein (of the starting concentration) [2] [%] | uncomplexed protein as a fraction of the starting concentration (fraction of the starting concentration) [3] | uncomplexed protein as a fraction of the starting concentration (fraction of the starting concentration) [4] | percent of uncomplexed protein (of the starting concentration) [5] [%] | percent of uncomplexed protein (of the starting concentration) [6] [%] | percent of uncomplexed protein (of the starting concentration) [7] [%] | percent of uncomplexed protein (of the starting concentration) [8] [%] | Substance
1 | 0.5 | 90 | 0.33 | – | – | – | – | – | wild-type human matrix metalloprotease 1 (hMMP-1), purified and trypsin-activated (from UniProt P03956 100-469) (enzyme)
2 | – | 45 | – | < 0.1 | 90 | 50 | 13 | 30 | MMP-1 mutant GVSK (G159V/S208K), purified and trypsin-activated (from UniProt P03956 100-469) (enzyme)
